Results on 1 molecule are retold here after publication PMC5474359.

The experiment addresses T1, CD-86, P42081.
T1 chain: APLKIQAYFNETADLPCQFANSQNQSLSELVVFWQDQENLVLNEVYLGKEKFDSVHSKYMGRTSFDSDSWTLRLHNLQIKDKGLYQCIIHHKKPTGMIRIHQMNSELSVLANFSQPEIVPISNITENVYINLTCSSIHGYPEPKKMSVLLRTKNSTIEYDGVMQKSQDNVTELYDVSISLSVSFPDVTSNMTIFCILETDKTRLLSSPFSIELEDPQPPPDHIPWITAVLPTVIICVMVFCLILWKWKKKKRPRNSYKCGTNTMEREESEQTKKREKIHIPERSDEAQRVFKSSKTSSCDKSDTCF
Put plainly: fluorescence correlation spectroscopy with photon counting histogram. Particulars: remark: other sources report otherwise.

B1: CD-86, P42081 24-329 (receptor)
chain: T1 chain
Regarding B1, the PCH molecular brightness was 9360 CPSM.
